Measured values: paper PMC9007600

Biological target: tralokinumab half molecule (human)

B1: tralokinumab half molecule (antibody, V domains shown)
VH: QVQLVQSGAEVKKPGASVKVSCKASGYTFTNYGLSWVRQAPGQGLEWMGWISANNGDTNYGQEFQGRVTMTTDTSTSTAYMELRSLRSDDTAVYYCARDSSSSWARWFFDLWGRGTLVTVSS
VL: SYVLTQPPSVSVAPGKTARITCGGNIIGSKLVHWYQQKPGQAPVLVIYDDGDRPSGIPERFSGSNSGNTATLTISRVEAGDEADYYCQVWDTGSDPVVFGGGTKLTVL
dissociation half-life: 16.8 h
